Data published in patent US20200308294A1 (published 2020).
Values belong to the molecule of their own block, whether it stands above or below them.

Experiments:
VEGF = VEGF (UniProt P15692); experiment: VEGF co-incubated with AB160, particulate removed, free VEGF in the supernatant measured by ELISA
[1] = target: ABRAXANE (albumin-bound paclitaxel) (UniProt P02768); experiment: flow cytometry of particles stained with goat anti-mouse IgG and PE detection; ABX alone as comparison
[2] = target: AB160 (nanoparticle of albumin-bound paclitaxel and bevacizumab, ratio about 10:4, average size 160 nm) (UniProt P02768); experiment: flow cytometry of particles stained with goat anti-mouse IgG and PE detection
[3] = target: T1, ABRAXANE (albumin-bound paclitaxel) (UniProt P02768 25-609, non-covalently bound paclitaxel (nanoparticle of about 130 nm)); experiment: VEGF co-incubated with ABX for 2 hours, particulate spun down, free VEGF in the supernatant measured by ELISA
T1 construct: A nanoparticle of many albumin molecules with paclitaxel, not a single protein; also called ABX; Paclitaxel Albumin-stabilized Nanoparticle Formulation
Description: The VEGF was incubated with the nanoparticles for 2 hours at room temperature. The suspension was spun at 6000 rpm for 15 minutes, supernatants were collected and free VEGF was measured by ELISA. Briefly, ELISA plates were coated with capture antibody overnight at 4° C. Plates were washed, blocked and standards and samples were added. After washing, detection antibody was added and plates were developed with substrate (R and D Systems, Minneapolis, Minn.). […] The concentration of unbound VEGF was determined with a standard curve from 0 to 2000 μg/ml.

% VEGF unbound (VEGF): < 10%
Molecule: AB160 (nanoparticle of albumin-bound paclitaxel and bevacizumab, ratio about 10:4, average size 160 nm) (from UniProt P02768 25-609)

% positive [1]: 6.7%
% positive [2]: 41.2%
Molecule: goat anti-mouse IgG (antibody)

binding result [3]: no binding (tested: >80% VEGF unbound)
B1: VEGF (ligand, UniProt P15692-4 27-191, looked up)
chain: APMAEGGGQNHHEVVKFMDVYQRSYCHPIETLVDIFQEYPDEIEYIFKPSCVPLMRCGGCCNDEGLECVPTEESNITMQIMRIKPHQGQHIGEMSFLQHNKCECRPKKDRARQENPCGPCSERRKHLFVQDPQTCKCSCKNTDSRCKARQLELNERTCRCDKPRR
notes: Soluble VEGF added to the nanoparticles
